According to patent EP4471063A1 (Medilink Therapeutics (Suzhou) Co., Ltd., dated 2023):

T1: human Her4-His (human, UniProt Q15303 26-649, limits assumed)
T1 construct: Bought protein
T1 sequence (looked up): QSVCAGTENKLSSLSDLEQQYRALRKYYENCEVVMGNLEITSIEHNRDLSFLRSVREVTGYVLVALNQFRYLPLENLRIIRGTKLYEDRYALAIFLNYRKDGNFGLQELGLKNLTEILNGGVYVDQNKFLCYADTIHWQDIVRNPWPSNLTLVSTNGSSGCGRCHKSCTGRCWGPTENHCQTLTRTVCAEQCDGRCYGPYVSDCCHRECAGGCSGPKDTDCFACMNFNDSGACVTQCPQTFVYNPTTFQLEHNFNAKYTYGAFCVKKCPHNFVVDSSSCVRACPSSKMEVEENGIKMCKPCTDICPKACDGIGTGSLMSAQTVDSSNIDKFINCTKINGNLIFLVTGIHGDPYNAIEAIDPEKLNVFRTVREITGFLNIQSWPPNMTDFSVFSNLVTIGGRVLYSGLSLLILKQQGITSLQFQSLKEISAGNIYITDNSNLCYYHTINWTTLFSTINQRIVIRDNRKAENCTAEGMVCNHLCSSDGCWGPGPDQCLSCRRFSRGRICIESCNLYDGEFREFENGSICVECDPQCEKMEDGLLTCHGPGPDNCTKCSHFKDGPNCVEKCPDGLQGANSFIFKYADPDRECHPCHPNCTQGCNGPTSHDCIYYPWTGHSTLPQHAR

T2: monkey Her3-his (monkey)
T2 chain: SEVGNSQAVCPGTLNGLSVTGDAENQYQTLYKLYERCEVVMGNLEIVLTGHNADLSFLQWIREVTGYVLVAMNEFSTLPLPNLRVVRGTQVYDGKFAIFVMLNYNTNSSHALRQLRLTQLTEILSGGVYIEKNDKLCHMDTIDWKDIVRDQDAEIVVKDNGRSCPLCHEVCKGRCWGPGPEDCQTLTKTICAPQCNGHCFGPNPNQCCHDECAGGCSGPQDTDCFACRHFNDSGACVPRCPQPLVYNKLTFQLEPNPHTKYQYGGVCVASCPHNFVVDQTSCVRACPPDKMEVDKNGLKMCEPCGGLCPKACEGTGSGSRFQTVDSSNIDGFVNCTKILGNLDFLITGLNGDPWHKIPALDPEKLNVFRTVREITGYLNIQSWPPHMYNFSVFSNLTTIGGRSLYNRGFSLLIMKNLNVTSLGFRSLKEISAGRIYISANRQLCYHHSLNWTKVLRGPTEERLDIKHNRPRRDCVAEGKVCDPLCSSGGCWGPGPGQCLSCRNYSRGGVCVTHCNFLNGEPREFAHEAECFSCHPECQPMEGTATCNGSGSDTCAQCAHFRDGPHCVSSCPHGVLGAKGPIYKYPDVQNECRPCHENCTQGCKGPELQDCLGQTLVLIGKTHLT

T3: rat Her3-his (rat)
T3 chain: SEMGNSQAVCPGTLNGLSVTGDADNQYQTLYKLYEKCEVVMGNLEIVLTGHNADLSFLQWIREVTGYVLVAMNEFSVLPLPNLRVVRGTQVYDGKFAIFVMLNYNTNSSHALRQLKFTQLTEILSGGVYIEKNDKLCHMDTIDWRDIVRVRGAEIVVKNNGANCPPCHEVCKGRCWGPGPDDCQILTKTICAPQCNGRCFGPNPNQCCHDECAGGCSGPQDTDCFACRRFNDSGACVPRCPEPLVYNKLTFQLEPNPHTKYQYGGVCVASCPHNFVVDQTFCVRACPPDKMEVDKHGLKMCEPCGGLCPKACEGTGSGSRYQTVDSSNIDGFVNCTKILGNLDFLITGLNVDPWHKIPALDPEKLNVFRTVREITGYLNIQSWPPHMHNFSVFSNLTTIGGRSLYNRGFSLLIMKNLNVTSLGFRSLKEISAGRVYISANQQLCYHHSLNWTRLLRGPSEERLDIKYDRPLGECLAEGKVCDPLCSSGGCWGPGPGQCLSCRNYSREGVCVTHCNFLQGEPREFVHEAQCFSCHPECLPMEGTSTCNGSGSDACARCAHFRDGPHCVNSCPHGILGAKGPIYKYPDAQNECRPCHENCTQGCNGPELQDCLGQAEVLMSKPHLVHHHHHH


Legend:
[1] = target: T4, human Her3 on tumor cells (human, UniProt P21860 20-1342); experiment: cell-based or functional assay
human EGFR-His [2] = target: T5, human EGFR-His (human, UniProt P00533 25-645); experiment: ELISA, coated human EGFR-His
T5 construct: Bought protein

human Her2-His [3] = target: T6, human Her2-His (human, UniProt P04626 23-652); experiment: ELISA, coated human Her2-His
T6 construct: Bought protein

human Her4-His [4] = target: T1, human Her4-His; experiment: ELISA, coated human Her4-His
[5] = target: T4, human Her3 on tumor cells; experiment: flow cytometry, T47D tumor cells
human EGFR-His [6] = target: T5, human EGFR-His; experiment: ELISA, coated EGFR-his, antibody 40 ng/mL
human Her2-His [7] = target: T6, human Her2-His; experiment: ELISA, coated Her2-his, antibody 40 ng/mL
human Her3-his [8] = target: T7, human Her3-his (human, UniProt P21860 20-643); experiment: ELISA, coated Her3-his, antibody 40 ng/mL
T7 construct: Construct encodes positions 1-643 with its own leader; Expressed in HEK293F, purified on a Ni column; also called human Her3 protein

human Her4-His [9] = target: T1, human Her4-His; experiment: ELISA, coated Her4-his, antibody 40 ng/mL
human EGFR-His [10] = target: T5, human EGFR-His; experiment: ELISA, coated EGFR-his, antibody 200 ng/mL
human Her2-His [11] = target: T6, human Her2-His; experiment: ELISA, coated Her2-his, antibody 200 ng/mL
human Her3-his [12] = target: T7, human Her3-his; experiment: ELISA, coated Her3-his, antibody 200 ng/mL
human Her4-His [13] = target: T1, human Her4-His; experiment: ELISA, coated Her4-his, antibody 200 ng/mL
[14] = target: T4, human Her3 on tumor cells; experiment: flow cytometry, A549-human Her3 tumor cells
human EGFR-His [15] = target: T5, human EGFR-His; experiment: ELISA, coated EGFR-his, antibody 1000 ng/mL
human Her2-His [16] = target: T6, human Her2-His; experiment: ELISA, coated Her2-his, antibody 1000 ng/mL
human Her3-his [17] = target: T7, human Her3-his; experiment: ELISA, coated Her3-his, antibody 1000 ng/mL
human Her4-His [18] = target: T1, human Her4-His; experiment: ELISA, coated Her4-his, antibody 1000 ng/mL
human Her3-his [19] = target: T7, human Her3-his; experiment: ELISA, coated human Her3-his, anti-human Fc-HRP
monkey Her3-his = target: T2, monkey Her3-his; experiment: ELISA, coated monkey Her3-his, anti-human Fc-HRP
human Her3-his [20] = target: T7, human Her3-his; experiment: BLI (Fortibio), antibody on ProteinA sensor, human Her3-His in solution, 1:1 model
rat Her3-his = target: T3, rat Her3-his; experiment: ELISA, coated rat Her3-his, anti-human Fc-HRP

Row | Binder | binding result (human EGFR-His [2]) | binding result (human Her2-His [3]) | binding result (human Her4-His [4]) | OD450 (human EGFR-His [6]) | OD450 (human Her2-His [7]) | OD450 (human Her3-his [8]) | OD450 (human Her4-His [9]) | OD450 (human EGFR-His [10]) | OD450 (human Her2-His [11]) | OD450 (human Her3-his [12]) | OD450 (human Her4-His [13]) | EC50 [14] | Maximum MFI [14] | OD450 (human EGFR-His [15]) | OD450 (human Her2-His [16]) | OD450 (human Her3-his [17]) | OD450 (human Her4-His [18]) | EC50 (human Her3-his [19]) | EC50 (monkey Her3-his) | Kd (human Her3-his [20]) | further results
1 | antibody 202-2-1 (antibody, human IgG1, kappa, V domains shown, Fully human IgG1/kappa from a phage scFv library; expressed in HEK293F; also called Her3mAb) VH: EVQLVESGGGVVQPGRSLRLSCAASGFTFSTYGMHWVRQAPGKGLEWVAVIWYDVSHKYYADSVKGRFTISRDNSKNTLSLQMNSLRAEDTAVYYCARDWGDPDAFDIWGQGTMVTVSS VL: not shown | no binding (tested: 1 µg/mL, 200 ng/mL, and 40 ng/mL) | no binding (tested: 1 µg/mL, 200 ng/mL, and 40 ng/mL) | no binding (tested: 1 µg/mL, 200 ng/mL, and 40 ng/mL) | 0.051 | 0.049 | 0.573 | 0.05 | 0.051 | 0.05 | 0.695 | 0.051 | 1.15 nM | 63800 MFI | 0.051 | 0.049 | 0.61 | 0.051 | 0.021 nM | 0.0159 nM | 13.1 nM | IC50 of inhibition of NRG1-induced AKT phosphorylation in MCF-7 cells (cell blotting, anti-Phospho Akt Ser473) [1]: 0.243 nM; EC50 [5]: 0.08 nM; koff (human Her3-his [20]): 0.00218 s⁻¹; kon (human Her3-his [20]): 167000 M⁻¹ s⁻¹
2 | antibody 202-3-1 (antibody, human IgG1, kappa, V domains shown) VH: QVQLQESGPGLVKPSETLSLTCTVSGGSISGYFWSWIRQSPGKGLEWIGYIHYSGRTNYNPSLKSRVTISVDTSKNQFSLKLSSVTAADTAVYYCARETGGSGHWYFDLWGRGNLVTVSS VL: not shown | no binding (tested: 1 µg/mL, 200 ng/mL, and 40 ng/mL) | no binding (tested: 1 µg/mL, 200 ng/mL, and 40 ng/mL) | no binding (tested: 1 µg/mL, 200 ng/mL, and 40 ng/mL) | 0.055 | 0.052 | 0.281 | 0.049 | 0.05 | 0.049 | 0.344 | 0.051 | 2.04 nM | 55700 MFI | 0.05 | 0.048 | 0.333 | 0.05 | 0.0606 nM | 0.0396 nM | 7.79 nM | IC50 of inhibition of NRG1-induced AKT phosphorylation in MCF-7 cells (cell blotting, anti-Phospho Akt Ser473) [1]: 1.04 nM; EC50 (rat Her3-his): 0.154 nM; koff (human Her3-his [20]): 0.00142 s⁻¹; kon (human Her3-his [20]): 182000 M⁻¹ s⁻¹
3 | antibody 202-3-2 (antibody, human IgG1, kappa, V domains shown, IgG1/kappa) VH: QVQLQESGPGLVKPSETLSLTCTVSGGSISGYFWSWIRQSPGQGLEWIGYIHYSGRTNYNPSLKSRVTISVDTSKNQFSLQLSSVTAADTAVYYCARETGGSGHWYFDLWGRGNLVTVSS VL: DIQMTQSPSSLSASVGDRVTITCRASQSISSYLIWYQQKPGQAPRLLIYAASSLQSGVPSRFSGSGSGTDFTLTISSLQPEDFATYYCHQSYSTPWTFGQGTKVEIKR | no binding (tested: 1 µg/mL, 200 ng/mL, and 40 ng/mL) | no binding (tested: 1 µg/mL, 200 ng/mL, and 40 ng/mL) | no binding (tested: 1 µg/mL, 200 ng/mL, and 40 ng/mL) | 0.051 | 0.05 | 0.306 | 0.051 | 0.05 | 0.051 | 0.407 | 0.051 | 2.59 nM | 54800 MFI | 0.051 | 0.05 | 0.427 | 0.05 | 0.0782 nM | 0.0439 nM | 6.81 nM | EC50 (rat Her3-his): 0.225 nM; koff (human Her3-his [20]): 0.00124 s⁻¹; kon (human Her3-his [20]): 182000 M⁻¹ s⁻¹
